Laboratory results taken from the Human Domainome abundance scans (Beltran et al. 2025).
± gives the uncertainty stated by the source.

B1: Endonuclease CUE2, residues 9 to 47; numbered along this chain, P36075 (parent)
chain: HESKLSILMDMFPAISKSKLQVHLLENNNDLDLTIGLLL

Variants of: B1
Assay: abundance fitness (aPCA) (normalised: wild type 0, dead -1); higher = more abundant; growth selection in yeast, the domain comes from the species named
Conditions: Saccharomyces cerevisiae (strain ATCC 204508 / S288c)
In the case of S16T, the abundance fitness is reported as -0.179 ± 0.074.
In the case of S16P, the abundance fitness is reported as 0.025 ± 0.051.
With S16D the abundance fitness was -0.048 ± 0.068.
With S16C the abundance fitness was -0.133 ± 0.14.
In the case of S16W, the abundance fitness is reported as -0.654 ± 0.11.
Variant S16A has an abundance fitness of -0.026 ± 0.043.
S16R showed an abundance fitness of -0.15 ± 0.032.
For S16Q, the abundance fitness was -0.057 ± 0.06.
With S16M the abundance fitness was -0.395 ± 0.055.
S16G gave an abundance fitness of -0.167 ± 0.032.
S16N showed an abundance fitness of -0.171 ± 0.074.
Variant S16H has an abundance fitness of 0.384 ± 0.22.
S16E gave an abundance fitness of -0.09 ± 0.042.
Work on S16L yielded an abundance fitness of -0.37 ± 0.046.
With S16K the abundance fitness was -0.114 ± 0.055.
For S16F, the abundance fitness was -0.045 ± 0.1.
With S16V the abundance fitness was -0.29 ± 0.048.
Variant Q21G has an abundance fitness of -0.139 ± 0.041.
Work on Q21W yielded an abundance fitness of -0.423 ± 0.046.
In the case of Q21E, the abundance fitness is reported as -0.021 ± 0.054.
Work on Q21V yielded an abundance fitness of -0.118 ± 0.039.
For Q21H, the abundance fitness was -0.124 ± 0.12.
In the case of Q21D, the abundance fitness is reported as -0.119 ± 0.064.
In the case of Q21T, the abundance fitness is reported as -0.128 ± 0.07.
Variant Q21R has an abundance fitness of -0.085 ± 0.034.
Variant Q21M has an abundance fitness of -0.089 ± 0.066.
Q21K showed an abundance fitness of -0.094 ± 0.047.
Q21F gave an abundance fitness of 0.012 ± 0.16.
Q21I showed an abundance fitness of 0.155 ± 0.1.
Q21S showed an abundance fitness of 0.033 ± 0.049.
Q21N showed an abundance fitness of 0.807 ± 0.49.
In the case of Q21L, the abundance fitness is reported as -0.24 ± 0.062.
Work on Q21P yielded an abundance fitness of -1.19 ± 0.42.
With Q21C the abundance fitness was -0.061 ± 0.048.
Variant L20C has an abundance fitness of -0.058 ± 0.12.
In the case of L20S, the abundance fitness is reported as -0.656 ± 0.26.
With L20K the abundance fitness was -0.838 ± 0.2.
L20V gave an abundance fitness of -0.311 ± 0.048.
L20R gave an abundance fitness of -0.853 ± 0.079.
Work on L20I yielded an abundance fitness of 0.161 ± 0.19.
Work on L20Q yielded an abundance fitness of -0.705 ± 0.19.
For L20W, the abundance fitness was -0.613 ± 0.058.
Variant L20T has an abundance fitness of -0.702 ± 0.16.
Work on L20H yielded an abundance fitness of -0.559 ± 0.081.
Variant L20E has an abundance fitness of -0.748 ± 0.084.
With D32E the abundance fitness was -0.055 ± 0.054.
D32A gave an abundance fitness of -0.124 ± 0.039.
Variant D32H has an abundance fitness of -0.106 ± 0.056.
For D32R, the abundance fitness was -0.091 ± 0.038.
Work on D32Y yielded an abundance fitness of -0.659 ± 0.33.
D32Q showed an abundance fitness of 0.032 ± 0.038.
Variant D32T has an abundance fitness of -0.183 ± 0.052.
D32V gave an abundance fitness of -0.302 ± 0.045.
In the case of D32G, the abundance fitness is reported as -0.082 ± 0.034.
For D32W, the abundance fitness was -0.499 ± 0.068.
D32N gave an abundance fitness of 0.07 ± 0.25.
D32L gave an abundance fitness of -0.416 ± 0.078.
D32K gave an abundance fitness of -0.003 ± 0.079.
Work on L24I yielded an abundance fitness of -1 ± 0.24.
Work on L24M yielded an abundance fitness of -0.31 ± 0.1.
With L24E the abundance fitness was -0.88 ± 0.12.
In the case of L24T, the abundance fitness is reported as -0.595 ± 0.2.
Work on L24P yielded an abundance fitness of -0.982 ± 0.21.
Work on L24V yielded an abundance fitness of -0.849 ± 0.061.
Work on L24W yielded an abundance fitness of -1.05 ± 0.12.
L24R gave an abundance fitness of -0.855 ± 0.066.
Work on L24G yielded an abundance fitness of -0.929 ± 0.07.
For L24A, the abundance fitness was -0.898 ± 0.091.
L24Q gave an abundance fitness of -1.08 ± 0.42.
For L24Y, the abundance fitness was -0.57 ± 0.4.
L25V gave an abundance fitness of 0.039 ± 0.042.
Variant L25S has an abundance fitness of -0.017 ± 0.047.
Variant L25D has an abundance fitness of -0.181 ± 0.19.
In the case of L25T, the abundance fitness is reported as 0.048 ± 0.047.
For L25W, the abundance fitness was -0.065 ± 0.04.
With L25C the abundance fitness was -0.002 ± 0.074.
Variant L25P has an abundance fitness of -0.952 ± 0.15.
L25A gave an abundance fitness of 0.076 ± 0.037.
L25N showed an abundance fitness of -0.333 ± 0.28.
With L25R the abundance fitness was 0.045 ± 0.033.
For L25G, the abundance fitness was 0.001 ± 0.035.
Work on L25Q yielded an abundance fitness of 0.073 ± 0.13.
For L25E, the abundance fitness was 0.041 ± 0.049.
Work on L25M yielded an abundance fitness of 0.043 ± 0.044.
L25K gave an abundance fitness of -0.126 ± 0.058.
With D30M the abundance fitness was 0.097 ± 0.22.
D30K showed an abundance fitness of -0.165 ± 0.11.
In the case of D30L, the abundance fitness is reported as -0.66 ± 0.18.
In the case of D30H, the abundance fitness is reported as -0.145 ± 0.2.
With D30C the abundance fitness was -0.261 ± 0.11.
In the case of D30E, the abundance fitness is reported as -0.171 ± 0.042.
Work on D30Q yielded an abundance fitness of -0.194 ± 0.075.
For D30R, the abundance fitness was -0.246 ± 0.045.
With D30A the abundance fitness was -0.286 ± 0.035.
For D30G, the abundance fitness was -0.759 ± 0.067.
D30T showed an abundance fitness of -0.813 ± 0.17.
For D30S, the abundance fitness was -0.223 ± 0.072.
Variant K19F has an abundance fitness of -0.123 ± 0.08.
For K19C, the abundance fitness was -0.248 ± 0.096.
K19P showed an abundance fitness of -0.818 ± 0.08.
Work on K19D yielded an abundance fitness of -0.081 ± 0.067.
K19W showed an abundance fitness of -0.248 ± 0.052.
Variant K19N has an abundance fitness of 0.063 ± 0.079.
Work on K19R yielded an abundance fitness of -0.01 ± 0.034.
In the case of K19L, the abundance fitness is reported as -0.143 ± 0.045.
With K19E the abundance fitness was -0.053 ± 0.042.
Variant K19Y has an abundance fitness of -0.364 ± 0.071.
With K19V the abundance fitness was -0.038 ± 0.034.
Variant K19H has an abundance fitness of -0.151 ± 0.077.
In the case of K19M, the abundance fitness is reported as -0.095 ± 0.088.
In the case of K19T, the abundance fitness is reported as -0.015 ± 0.047.
In the case of K19Q, the abundance fitness is reported as -0.048 ± 0.044.
For K19A, the abundance fitness was -0.051 ± 0.035.
With K19S the abundance fitness was -0.059 ± 0.041.
In the case of L33H, the abundance fitness is reported as -0.456 ± 0.23.
With L33Q the abundance fitness was -0.068 ± 0.062.
In the case of L33E, the abundance fitness is reported as 0.06 ± 0.042.
In the case of L33T, the abundance fitness is reported as -0.004 ± 0.051.
Work on L33P yielded an abundance fitness of -0.008 ± 0.05.
In the case of L33C, the abundance fitness is reported as 0.012 ± 0.053.
In the case of L33D, the abundance fitness is reported as 0.031 ± 0.047.
In the case of L33I, the abundance fitness is reported as -0.089 ± 0.062.
L33S showed an abundance fitness of -0.034 ± 0.045.
Variant L33F has an abundance fitness of -0.258 ± 0.053.
Variant L33G has an abundance fitness of 0.031 ± 0.032.
L33M showed an abundance fitness of -0.001 ± 0.046.
Variant L33K has an abundance fitness of 0.036 ± 0.061.
Work on L33R yielded an abundance fitness of 0.082 ± 0.032.
With L33V the abundance fitness was 0.03 ± 0.035.
L33W showed an abundance fitness of -0.4 ± 0.051.
L33Y showed an abundance fitness of -0.004 ± 0.047.
In the case of L33N, the abundance fitness is reported as 0.075 ± 0.057.
For V22W, the abundance fitness was -0.147 ± 0.039.
Work on V22C yielded an abundance fitness of 0.119 ± 0.082.
Work on V22R yielded an abundance fitness of 0.026 ± 0.032.
V22D gave an abundance fitness of -0.069 ± 0.11.
V22P showed an abundance fitness of -0.464 ± 0.07.
Work on V22K yielded an abundance fitness of 0.03 ± 0.045.
For V22A, the abundance fitness was -0.001 ± 0.04.
In the case of V22L, the abundance fitness is reported as -0.08 ± 0.041.
V22E gave an abundance fitness of -0.05 ± 0.04.
With V22I the abundance fitness was 0.039 ± 0.28.
With V22M the abundance fitness was 0.019 ± 0.056.
In the case of V22T, the abundance fitness is reported as -0.006 ± 0.044.
V22G gave an abundance fitness of -0.071 ± 0.036.
Variant V22S has an abundance fitness of -0.055 ± 0.051.
Variant H23Y has an abundance fitness of -0.154 ± 0.23.
H23P showed an abundance fitness of -0.622 ± 0.11.
In the case of H23V, the abundance fitness is reported as -0.146 ± 0.037.
Variant H23A has an abundance fitness of -0.075 ± 0.036.
For H23L, the abundance fitness was -0.139 ± 0.047.
In the case of H23R, the abundance fitness is reported as -0.124 ± 0.034.
For H23D, the abundance fitness was -0.544 ± 0.11.
In the case of H23E, the abundance fitness is reported as -0.163 ± 0.062.
Variant H23W has an abundance fitness of -0.305 ± 0.056.
Variant H23M has an abundance fitness of -0.165 ± 0.052.
Work on H23Q yielded an abundance fitness of -0.151 ± 0.065.
For H23G, the abundance fitness was -0.342 ± 0.036.
In the case of H23K, the abundance fitness is reported as -0.338 ± 0.1.
For H23N, the abundance fitness was -0.026 ± 0.089.
K17E gave an abundance fitness of -0.122 ± 0.04.
For K17F, the abundance fitness was -0.343 ± 0.069.
For K17P, the abundance fitness was -0.082 ± 0.039.
In the case of K17R, the abundance fitness is reported as -0.074 ± 0.037.
K17C gave an abundance fitness of -0.356 ± 0.12.
Work on K17D yielded an abundance fitness of -0.286 ± 0.1.
For K17M, the abundance fitness was -0.307 ± 0.11.
